Where two headings read alike, the source gives them in different places. Bridge positions count the residues as written; N and C are the ends. Ends that are not written are not given here.
B1: 5 kDa fragment of plasma gelsolin (173-225), D187N (domain or fragment, human)
chain: ATEVPVSWESFNNGNCFILDLGNNIHQWCGSNSNRYERLKATQVSKGIRDNER
modifications: disulfide 16-29
B2: 8 kDa fragment of plasma gelsolin (173-242), D187N (domain or fragment, human)
chain: ATEVPVSWESFNNGNCFILDLGNNIHQWCGSNSNRYERLKATQVSKGIRDNERSGRARVHVSEEGTEPEA
modifications: disulfide 16-29

Key:
[1] = target: the molecule itself; assay: thioflavin T fluorescence aggregation assay
[2] = target: the molecule itself; assay: thioflavin T fluorescence aggregation assay; remark: listed apart in the source

Row | Protein | binding result [1] | binding result [2]
1 | B1 | binds | 
2 | B2 |  | binds
